Reference: PMC2195846

Biological target: Full-length Daxx linked to the Gal4 DNA binding domain (pAS2-1-Daxx) (mouse) (UniProt O35613)
Assay: two-hybrid

UniProt O35613, sequence (O35613 whole entry, the tested form may be a part): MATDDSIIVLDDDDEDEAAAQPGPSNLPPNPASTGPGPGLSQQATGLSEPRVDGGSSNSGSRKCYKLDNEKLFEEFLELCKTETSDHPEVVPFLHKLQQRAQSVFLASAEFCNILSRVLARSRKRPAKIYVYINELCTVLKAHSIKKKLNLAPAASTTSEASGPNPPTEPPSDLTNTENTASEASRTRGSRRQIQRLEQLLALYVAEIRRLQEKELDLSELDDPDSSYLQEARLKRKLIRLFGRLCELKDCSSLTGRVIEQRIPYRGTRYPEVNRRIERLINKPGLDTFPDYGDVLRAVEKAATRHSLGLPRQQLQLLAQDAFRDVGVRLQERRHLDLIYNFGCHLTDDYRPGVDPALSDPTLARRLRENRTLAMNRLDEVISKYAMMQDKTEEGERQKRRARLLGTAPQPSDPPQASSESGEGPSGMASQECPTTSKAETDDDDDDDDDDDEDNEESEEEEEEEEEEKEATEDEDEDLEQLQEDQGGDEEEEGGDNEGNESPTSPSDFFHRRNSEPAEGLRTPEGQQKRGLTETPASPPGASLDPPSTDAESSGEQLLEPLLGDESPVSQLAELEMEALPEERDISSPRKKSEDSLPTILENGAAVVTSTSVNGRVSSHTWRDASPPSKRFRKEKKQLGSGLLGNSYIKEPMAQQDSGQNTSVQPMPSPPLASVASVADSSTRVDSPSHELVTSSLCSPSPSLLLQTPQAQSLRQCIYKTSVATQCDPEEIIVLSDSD

“Full-length PML linked to the Gal4 activation domain (pACT-2-PML) (from UniProt P29590 1-882) (natural protein)” was tested. Which β-galactosidase expression, fold over the single-transformed colonies did it give?
Its β-galactosidase expression, fold over the single-transformed colonies is 50 fold.
